Test results taken from patent US20140206849A1 (Alexion, published 2014).

T1: human C5a (human, UniProt P01031 678-751)
T1 sequence (looked up): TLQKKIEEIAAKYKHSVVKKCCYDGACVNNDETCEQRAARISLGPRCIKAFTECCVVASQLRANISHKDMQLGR


Experiments:
[1] = biological target: T1, human C5a; test: SPR (Biacore), 'under similar conditions' to the humanized antibody; murine antibody
[2] = biological target: T1, human C5a; test: SPR (Biacore), antibody captured by anti-human Fc on CM5 chip, human C5a 0.6-5.9 nM in solution, 1:1 Langmuir fit; humanized antibody
Text: The humanized antibody was subjected to BIAcore analysis to quantify its affinity for human C5a, in part, to determine if humanization affected the binding affinity of the antibody for its antigen. See, e.g., Karlsson and Larsson (2004) Methods Mol Biol 248:389-415. Briefly, the humanized antibody was screened with 3-4 concentrations of human C5a (antigen) using a capture technique. The antibody was captured by an anti-Fc (human) antibody directly immobilized on a CM5 sensor chip with various concentrations in the range from 0.6 nM to 5.9 nM of human C5a passed over the sensor chip surface. The surface was regenerated with 20 mM HCl, 0.02% P20 after each cycle to remove bound antibody and antigen. The data were evaluated using Biacore BIAevaluation software using a 1:1 Langmuir Model Fit (Rmax:Global Fit; RI:Local Fit). Kinetics information such as kₐ (Association Rate constant), kd (Dissociation Rate constant), and KD (Equillibrium Dissociation constant) was obtained from the fit. […] Methods for testing the humanized antibody for reduced immunogenicity in a human, as compared to the donor antibody, are known in the art and described herein.

Binder | Kd [1] [nM] | koff [1] [s⁻¹] | kon [1] [M⁻¹ s⁻¹] | Kd [2] [nM] | koff [2] [s⁻¹] | kon [2] [M⁻¹ s⁻¹]
murine anti-human C5a antibody (antibody, V domains shown, also called murine anti-C5a antibody; murine anti-C5a antibody counterpart) VH: EVQLQQSGPELVKPGSSVKISCKASGYTFTDYSMDWVKQSHGKSLEWIGAINPNSGGTNYSQKFKDKATLTVDKSSSTAYMELRSLTSEDSAVYYCASSGSYDGYYAMDYWGQGTSVTVSS VL: DIVMTQSPASLAVSLGQRATISCRASESVDSYGNSFMHWYQQKPGQPPKLLIYRASNLESGIPARFSGSGSRTDFTLTINPVEADDVATYYCQQSNEDPYTFGGGTKLEIKR | ~0.512 | ~0.00141 | ~2.76e+06 | – | – | –
humanized anti-human C5a antibody (antibody, V domains shown, also called humanized anti-C5a antibody; the humanized antibody) VH: QVQLVQSGAEVKKPGASVKVSCKASGYTFTDYSMDWVRQAPGQGLEWMGAINPNSGGTNYNQKFKDRVTMTRDTSTSTVYMELSSLRSEDTAVYYCARSGSYDGYYAMDYWGQGTTVTVSS VL: DIQMTQSPSSLSASVGDRVTITCRASESVDSYGNSFMHWYQQKPGKAPKLLIYRASNLESGVPSRFSGSGSGTDFTLTISSLQPEDFATYYCQQSNEDPYTFGGGTKVEIK | – | – | – | ~0.298 | ~0.000576 | ~1.93e+06
